This note sets out measurements from US20210147566A1.

For this test, the target named is human transferrin receptor (TFR) on Raji cells (human) (UniProt P02786). Kind of test: FACS on Raji cells, secondary antibody without IgG1 clone [CONTINUED].
Sequence of human transferrin receptor (TFR) on Raji cells (human) (P02786 whole entry): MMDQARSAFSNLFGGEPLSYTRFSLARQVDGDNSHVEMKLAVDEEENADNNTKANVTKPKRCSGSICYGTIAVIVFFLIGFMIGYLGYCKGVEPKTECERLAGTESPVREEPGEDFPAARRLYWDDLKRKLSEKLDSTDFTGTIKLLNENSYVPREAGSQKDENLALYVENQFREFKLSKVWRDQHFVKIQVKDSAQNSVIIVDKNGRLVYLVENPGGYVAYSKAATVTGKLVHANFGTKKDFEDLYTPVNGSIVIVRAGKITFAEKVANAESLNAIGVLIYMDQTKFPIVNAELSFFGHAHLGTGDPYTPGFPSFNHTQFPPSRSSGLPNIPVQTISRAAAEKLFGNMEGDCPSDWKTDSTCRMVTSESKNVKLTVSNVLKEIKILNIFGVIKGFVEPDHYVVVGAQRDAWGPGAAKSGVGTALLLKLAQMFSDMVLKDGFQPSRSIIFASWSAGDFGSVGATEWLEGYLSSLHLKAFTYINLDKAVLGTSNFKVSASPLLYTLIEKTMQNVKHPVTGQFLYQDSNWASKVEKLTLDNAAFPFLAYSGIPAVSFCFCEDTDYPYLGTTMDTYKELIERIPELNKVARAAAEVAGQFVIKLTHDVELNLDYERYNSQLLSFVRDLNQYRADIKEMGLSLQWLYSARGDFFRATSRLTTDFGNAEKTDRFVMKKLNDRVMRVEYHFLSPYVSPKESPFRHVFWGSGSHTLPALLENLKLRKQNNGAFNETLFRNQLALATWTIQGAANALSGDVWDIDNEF

ANTI-FAB ALEXA FLUOR 647 (antibody) returned a TFR gate, percent of cells of 19.1.
